Target: IL-2Rα Fc tag (UniProt P01589)
Sequence of UniProt P01589 (P01589 22-240): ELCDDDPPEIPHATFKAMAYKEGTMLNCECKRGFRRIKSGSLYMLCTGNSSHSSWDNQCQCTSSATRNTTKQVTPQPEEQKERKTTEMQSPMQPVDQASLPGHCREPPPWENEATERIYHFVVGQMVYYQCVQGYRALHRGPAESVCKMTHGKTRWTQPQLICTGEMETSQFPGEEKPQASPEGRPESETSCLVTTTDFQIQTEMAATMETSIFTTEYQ

- EC50 of CTLL-2 cell proliferation (CellTiter-Glo, 48 h, 50 to 0.002 ng/mL): 0.014 µg/mL
Substance: IL-2K35C (from UniProt P60568 22-153) (ligand)
